Test results published in paper PMC5620733, “Aptamer-Based Single-Step Assay by the Fluorescence Enhancement on Electroless Plated Nano Au Substrate”.

Target: thrombin (UniProt P00734;P00734 328-363;364-622)
Assay: fluorescence decrease on chitosan-coated Au nanostructure (aptamer release); 10 ug/mL thrombin, 15 min; smaller signal change than 15mer, ascribed to retention on chitosan; 20 mM Tris-HCl pH 7.4, 20 mM MgCl2; chitosan-coated (1000 Da) Au nanostructure blocked with 1% BSA; 15 min; temperature not stated

B1: TBA 21mer (5'-extended) (ssDNA)
DNA: CACTGTGGTTGGTGTGGTTGG
B1: binds.
